This is an account of results in a protein production outcome set (Wang et al. 2014).

This series is described as follows: label from the status in PepcDB records.

On to “MHSLARRALHTCNVPRDLNPVTFCDTAGEHPDRVGLDSNAAEAVWRSVEALYRTGVHPGIQLSLRYRGEQVLHRSIGHARGNGPHDPASLPRIPMTTDTPICFFSASKAVTALLMHMLSEQGLVNLMDPVSYYCPEFARNGKRTITVHQILSHRGGIPAIPRETPIDVLWDRDEIWRLLCAAKPVEVDGAKVAYHAITGGFVLQRVLEKVTGDTIESYLDRYLRRPMGMKWFTYGIAPEHLHELASNYATGPTPRFPVSWVVNRALGGDIRTVEKVTNDPRFQEAVIPAGNLCGTAEEMGRFFQMMLNGGSWDGKRICSELTVRRAIQQFGSLQMDRTMLVPMRFSAGMMLGSNPVGLWGQQSRYAFGHVGLINKLCWADPARDISVSLLNTGFPIVGHHLPALARFVYTVCKQFPVLPENQRRLVAA”, for which the protein production entry was “failed”. Take “MHSMKLLVTGGMGFIGSNFIRYILEKHPDWEVINIDKLGYGSNPANLKDLEDDPRYTFVKGDVADYELVKELVRKVDGVVHLAAESHVDRSISSPEIFLHSNVIGTYTLLESIRRENPEVRFVHVSTDEVYGDILKGSFTENDRLMPSSPYSATKAASDMLVLGWTRTYNLNASITRCTNNYGPYQFPEKLIPKTIIRASLGLKIPIYGTGKNVRDWLYVEDHVRAIELVLLKGESREIYNISAGEEKTNLEVVKIILRLMGKGEELIELVEDRPGHDLRYSLDSWKITRDLKWRPKYTFDEGIKKTIDWYLKNEWWWKPLVDERILHPTPWKLKW”: the protein production entry is given as “not failed”. In the case of “MHSPLELTLVLLAAAVIGVVLFRMLQLPPMLAYLVVGVVIGPNATGLESDSAQTRYLAEFGVVFLMFSIGLEFSLAKLRSMRRLVLGLGASQVVLTMLLTVPASLLLSRWYPLSWQASLALGGALAMSSTAIVSKMLAERLQLETEHGRNIISVLLFQDLAVVLLLIVVPSLGKNPTDLVLTLSIAAVKIIVALVLILFLGQKLLSRWFHLVAARRSQELFMLNLLLVTLGMAALTERLGLSMALGAFLAGMLVSETPYRLQVEEDIKPFRDVLLGLFFVTVGMLLDPRVVIGHWGLVIGLVIGPVLFKFALIALLARAFGSGGGTAIRTALGLAQAGEFGFVLLNQIDGMRLIDPLLSQAILAAMLLSMLLAPFLIQYSDAIAMRLSRTDWLMQSLAMTKIAAQSLQTERHVIICGYGRSGQNLAHMLEQEDISYVALDLDPDRVRDAAAAGERVVYGDAARRESLVAAGVHRAAAVAVTYADTASALKVLHHVQALAPTLPVIVRTIDDADLDRLQQAGAAEVVPEIIEGSLMLASHALVLLGVPLRRVVRRAQEMRDARYGLLRGYFHGQDDDEDMLERDAVRLHSVPLIKGSPAIGRPLGTLGLETFKTSVTAIRRQGIRALDPEPNTLLELGDIVVLRGTPDGLQQAEERLSPR” it was “failed”; in that of “MHSPQISPPIAPSTPLLAGWRSAGKAPEAAIRGEAVSLQPLDAPRHGAALFRLFAGDDSHWEHLPYGPFEDEDAFITWLALTVAQSDTALYVVCAKDSDQALGFLGYRQMVQAHGAIEIGHVNFSPALRRTRLATEAVFLLLKTAFELGYRRCEWRCDSRNAASAAAARRFGFQFEGTLRQAMVVKRRNRDTHVFSMLDGEWDALK”, “not failed”; in that of “MHSQFAPRLRQLRWYEIVLIATVAAALCIYLPIVVKRSAVQGFGDVQVFFRAAWAVWTGYPLYQVADHHGWTYHYPPTFALLMGPFAHPLDGFPKPDWALSLPLSVATWYVFSAAAMLAAVDLWARGLERALPPSLDQADWSAWWLLRLGPVAALLPFFGDGLGRGQPSAVVLLTMVAFLVLYLRGRIYLAACALALGFTIKLFPLALLIFPVLRRDLRTVLATFGFSAVFLFVVPMLCLGPSEVVKLYGAMWTEHLSGIFTGVPNPKIADEITFTSYDMLSIGAMLARIAAGGLPETDTLPRFATICQLMFDAVVIGALLWLGHGRFWRLRGPQPPLGPSLLIGGALLCAALPVMLSVSQPNYVAFAAPLVALVQFEVWRRRGRVCVVPALIAWSGLMWLGMIATEGGAWQPLRVVGLVTPALIALLLWGFASLRRAAAPP”, “failed”. As for “MHSQIWVVSTLLISIVLIVLTIVKFKFHPFLALLLASFFVGTMMGMGPLDMVNAIESGIGGTLGFLAAVIGLGTILGKMMEVSGAAERIGLTLQRCRWLSVDVIMVLVGLICGITLFVEVGVVLLIPLAFSIAKKTNTSLLKLAIPLCTALMAVHCVVPPHPAALYVANKLGADIGSVIVYGLLVGLMASLIGGPLFLKFLGQRLPFKPVPTEFADLKVRDEKTLPSLGATLFTILLPIALMLVKTIAELNMARESGLYILVEFIGNPITAMFIAVFVAYYVLGIRQHMSMGTMLTHTENGFGSIANILLIIGAGGAFNAILKSSSLADTLAVILSNMHMHPILLAWLVALILHAAVGSATVAMMGATAIVAPMLPLYPDISPEIIAIAIGSGAIGCTIVTDSLFWLVKQYCGATLNETFKYYTTATFIASVVALAGTFLLSFII”, the protein production entry is listed as “failed”. The result for “MHSREYPFMLASMMFDFACLQISSLWERLLGAIGDAAGNALGRVVEAIRTLFEGDPETRRKVSFSVAIIALSAKMAKADGVVNDAEVRAFRQIFDFPDEEAKNVARLYNLARQDVAGYEAYAERLAGLCGSGHANCEMLESVIDGLFHIAKADGLIHERELAFLGRIAEIFRITEDHFETIMARHVHMDGRDPYRVLGVSPSDDFLDIRKRYRSLVAEHHPDKLIARGVPMELHAAANERMAALNAAYAAIEKERRVA” reads “failed”.

In the case of “MHTLNLGILAHVDAGKTSLTERLLHTVGVIDEIGSVDEGNTQTDSLALERQRGITIKSAVVSFAINDTTVNLIDTPGHPDFIAEVERVLSVLDGAVLVVSAVEGVQAQTRVLLRTLQRLRIPTLLFVNKIDRGGAGEERVLRAIAARLTPAIVPMGRAAGPGSRDARFIPYEAHDPGFGARLLDVLTEHDEELLAAYVKDTVSYGRLRTALVEQTRQALVHPVFFGSATTGAGVPELIAGIKELLPAAEGDPDGPVSGTVFKVERGPAGEKIAYARLFSGTVRTRDRLLFRDGEEGKVTAISVFDQGSAVREASVAAGRIGKLWGLAEIRIGDTFGEVPKAAEPSRHFSPPTLETVVVPGGRSDGGALHLALTQLAEQDPLINMRQDEIRREISLSLYGEVQKEVIQATLADAFGLDVTFRETTPICVERPVGTGAAVEFNGKGPHPFLATVGLRVEAAPVGSGVEFRLEVELGAMPYAFFKAVEDTVRETLGQGIHGWRVTDCTVTMTHSGYSPRQSHAHQGFDKSMSSTGADFRGLTPLVLMDALRQAGTRVHEPLHRFGLEAPADTLGAVLPVLAGLRAVVRTTRMREAVCVLEGLVPAAHVHELGQVLPGLTRGEGELETAFDHYAPVAGGTVPNRPRTDHNPLDRKEYLLNVTRRVGT”, the protein production entry is “failed”. The result for “MHTLVFLSTRQVLQCQPAACQALPLLPRELFPLLFKVAFMDKKTVVLRELVHTWPFPLLSFQQLLQECAHCSRALLQERPSTESMQAVILGLTARLHTSEPGASTQPLCRKHALRVLDMTGLLDDGVEQDPGTMSMWDCTAAVARTCIAQQQGGAAEPGPAPIPVEVRVDLRVNRASYAFLREALRSSVGSPLRLCCRDLRAEDLPMRNTVALLQLLDAGCLRRVDLRFNNLGLRGLSVIIPHVARFQHLASLRLHYVHGDSRQPSVDGEDNFRYFLAQMGRFTCLRELSMGSSLLSGRLDQLLSTLQSPLESLELAFCALLPEDLRFLARSPHAAHLKKLDLSGNDLSGSQLAPFQGLLQASAATLLHLELTECQLADTQLLATLPILTQCASLRYLGLYGNPLSMAGLKELLRDSVAQAELRTVVHPFPVDCYEGLPWPPPASVLLEASINEEKFARVEAELHQLLLASGRAHVLWTTDIYGRLAADYFSL” reads “failed”.

As to “MHTTFTFHLYPWILKYLKGGEGNFKYLHQENPKQEITDSSDKMSFWKDRMLIIPAVDIKDGKCVQLVQGKPGTEQVVLDDPAGVAGRWESLGAETIHVVDLDGALGLEKNTGILKEITERVSVPLQIGGGIRSREYAGKLLDMGFERVILGTMAIENPAIVEELAGEYGSERIMVSLDSRDSRVVIRGWTEKVPFTAEEMARKFQERGAGSILFTNVDFEGLLSGFDLKPVSELVEAVEIPVIYSGGVSSLNDLRMLQGTGVMGVVIGSAIYRGLIDLTEALKYQDLK”, the protein production entry is given as “failed”.

Take “MHVLTLDLAPVTPKDAPLLHRVFHLSPSYFALIGMELPTLEDVVRDLQTLEVDPRRRAFLLFLGQEPVGYLDAKLGYPEAEDATLSLLLIREDHQGRGLGRQALERFAAGLDGVRRLYAVVYGHNPKAKAFFQAQGFRYVK”: the protein production entry is given as “failed”. For “MHYAFSRIRLRSFFGWMIIGVFLIMIPLDLTNVSENTMEVISQITVFFVFPLLWLYVKTNKNNVVFNSFFDKPGRLSWGLIVLATIMGMIFSVGISQIQFYILAHTLPNFLVTMLEDGNVINTSNVYMTIFTFISACVLAPIMEEVIFRGFFLQRMAYKWGIKKAVIISSIIFGLGHFDVIGAFMFGVVMCLLYIKTKNIWTNIAVHALNNLIATSMQFFGGEESGTISITELQAQSNLWIGIGLTVVGLLWLIPYVWKQWRTVKEVGVPPVRFINEQKVVSSSQENEVYSQVILTDRLMAIELPDEAVNKLRLEENDYVTVSVEEDKIVIKKAHNR”, the protein production result is on record as “failed”.

Turning to “MHYPVLVNPRKPSLSRMPMKKPKRASAAKAKKGRKISASRSKPATKRPAKPPRRGASLDGTKDSAKIIRGLRSKLKAAERRVAELEAAADTDFLLEIPNRRGFERELTRAIAYMKRYRATGALIVLDVDRLKPINDSFGHAAGDEVLKAIVGALTRQVRASDVVGRLGGDEFALLLWNLNETDAKAKAAAFEQTIDELSFVFRSQNVTAGASAGVALLGAHSDAGRALEEADAAMYVRKARRRHEPRIRLVSN”, the protein production entry is reported as “failed”. The result for “MIAKEFETFLLGQEETFLTPAKNLAVLIDTHNADHATLLLSQMTYTRVPVVTDEKQFVGTIGLRDIMAYQMEHDLSQEIMADTDIVHMTKTDVAVVSPDFTITEVLHKLVDESFLPVVDAEGIFQGIITRKSILKAVNALLHDFSKEYEIRCQ” reads “not failed”. The result for “MIALLPAYLLWVVLSLLEYNRQAREQIQDDIFREREYASVALRGISDAVVSIDTEQVIQYLNPAAEALLGLPAAQLLQRRLKQVAPLHYEFSRQPVQDPIEQAIATQQVVHLAQNCYLKRHNGEKLLVEGAVAPLLGRNGQLIGSVLTFRDTAPIRRRMLAALEASESRLRQHELELARVTRINTMGEMASGIAHEINQPLSAIMSYCQAGLSLLEDDELDMAMLRRALTSSVSQADRAGRIIHRLREFVTQKNQQLAPVQLNQAVHNALSLLDYELHDHDIHIEQNFAPELPLVYADTIQLEQVVLNLARNAVEAMEPTRPWGRLSITTRRQGERVQLIISDNGCGIPPDKLDRIFDPFFSTKPNGMGLGLAICQTAVEAFGGKLIAGNKPGSGAEFIIDLPCAPRDMAVPSGVEA” reads “failed”; that for “MIAMDIREIGLRLVGEAIKAADPYRAVLNAVKVSDDKIIVQGKEFEIKGKVYVIALGKAACEMARAIEDILDVEDGVAVTKYGYGKELKRIKVIEAGHPIPDEKSILGAKEALSILNRARENDIVFILISGGGSALFELPEEGISLEDLKLTTDLLLKSGAKIHEINTVRKHISKVKGGKLAKMIKGTGIVLIISDVVGDNLEAIASGPTVKDPTTFEDAKRILELYDIWEKVPESVRLHIERGLRGEVEETLKEDLPNVHNFLIASNSISCEAIAREAQRLGFKAYIMTTTLEGEAKDAGLFIGSIVQEIAERGRPFEPPVVLVFGGETTVTIEGKGGKGGPNQEIALSATRKISDLEALIVAFDTDGTDGPTDAAGGIVDGTTYKKLREKGIDVEKVLKEHNSYEALKKVGGLLFTGPTGTNVNSIVIAIVTSKRGRT”, “not failed”. The result for “MIASVASTTKDRLEIVKAFRNKEITILIATSILERGVTFPNVDVFVINSEHPNFTKSALIQMAGRVGRSPERPTGLVSFFHYGKSKAMCQAVREIKKMNQLGCFSLEHHHHHH” reads “failed”; that for “MIAVISMSGHVWSQQVPLWSIIIRTIHLIGLTLWLGSLVYLICYAIKVKINQLTSVRRMLLKVNIIAVFMLVFTGILMAIDETNTLTLWNNVSAWSIYLVIKIAGIITMMLLGFYQTMRALRQRQQVHRFALMTELLIGMILIFAGIMMSK”, “failed”.
